Publication PMC4825019
Where two headings read alike, the source gives them in different places.

Key:
[1] = biological target: synaptophysin (endogenous) (mouse (endogenous in C57BL/6 brain)) (UniProt Q62277); assay: co-IP; reverse co-IP from dephosphorylated wild-type mouse brain lysate (neither heated nor dialyzed) with antibodies for synaptophysin, β-synuclein or apoA1; blot probed with Dako Tau antibody, the three Tau isoforms quantified with ImageJ
[2] = biological target: β-synuclein (endogenous) (mouse (endogenous in C57BL/6 brain)) (UniProt Q91ZZ3); assay: as above
[3] = biological target: β-synuclein (endogenous) (mouse (endogenous in C57BL/6 brain)) (UniProt Q91ZZ3); assay: as above; remark: listed apart in the source
[4] = biological target: recombinant 1N Tau (Mtau210, 1N4R, with N-terminal GST tag) (murine); assay: ELISA; plates coated overnight at 4 °C with recombinant 0N, 1N or 2N Tau at 10 μg/ml in PBS, blocked with 3% BSA; recombinant β-synuclein and synaptophysin at 10 μg/ml in PBS for 1 h at room temperature, detected with anti-V5; recombinant apoA1 detected with an anti-apoA1 antibody; absorbance at 450 nm after subtraction of BSA-coated wells
[5] = biological target: recombinant 2N Tau (Mtau2310, 2N4R, with N-terminal GST tag) (murine); assay: as above

UniProt Q62277, sequence (Q62277 whole entry, canonical isoform): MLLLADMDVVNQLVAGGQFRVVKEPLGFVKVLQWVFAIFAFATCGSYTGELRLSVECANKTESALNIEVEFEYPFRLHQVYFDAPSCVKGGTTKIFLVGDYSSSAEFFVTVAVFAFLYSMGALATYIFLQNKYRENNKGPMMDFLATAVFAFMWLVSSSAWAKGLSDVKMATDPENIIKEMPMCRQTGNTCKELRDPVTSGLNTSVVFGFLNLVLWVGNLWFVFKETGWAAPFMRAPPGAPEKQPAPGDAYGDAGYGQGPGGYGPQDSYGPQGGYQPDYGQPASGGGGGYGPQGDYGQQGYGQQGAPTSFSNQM

Substance	ratio to 0N Tau (Western blot of the reverse IP) [1]	ratio to 0N Tau (Western blot of the reverse IP) [2]	ratio to 0N Tau (Western blot of the reverse IP) [3]	ratio to 0N Tau (ELISA absorbance) [4]	ratio to 0N Tau (ELISA absorbance) [5]
1N Tau (endogenous) (natural protein)	0.97	0.41	0.897		
recombinant β-synuclein (C-terminal His6 and V5 tag) (from UniProt Q91ZZ3 1-133) (natural protein)				0.63	0.26
2N Tau (endogenous) (natural protein)	0.93	0.37	0.5		
